Earlier results on 1 substance are cited in PMC10083361.

One may read the Kd as the constant that tells how readily two partners part at equilibrium.

For this data set, the target named is TRAF2 (Homo sapiens) (UniProt Q12933).
Sequence of TRAF2 (Homo sapiens) (Q12933 2-501): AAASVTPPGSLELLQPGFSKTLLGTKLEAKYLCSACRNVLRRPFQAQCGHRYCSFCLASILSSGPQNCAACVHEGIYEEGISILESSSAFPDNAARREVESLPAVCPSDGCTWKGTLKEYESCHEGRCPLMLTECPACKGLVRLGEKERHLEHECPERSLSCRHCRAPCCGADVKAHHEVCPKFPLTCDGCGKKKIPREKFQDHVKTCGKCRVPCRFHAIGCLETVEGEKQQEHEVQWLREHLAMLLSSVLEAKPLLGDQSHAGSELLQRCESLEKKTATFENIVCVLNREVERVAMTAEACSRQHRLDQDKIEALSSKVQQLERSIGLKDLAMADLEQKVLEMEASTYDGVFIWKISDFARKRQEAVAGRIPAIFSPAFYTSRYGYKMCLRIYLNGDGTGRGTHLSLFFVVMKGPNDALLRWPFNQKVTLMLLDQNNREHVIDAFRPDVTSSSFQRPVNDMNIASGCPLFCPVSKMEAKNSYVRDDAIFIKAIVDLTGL

Sequence of 4-1BB (Q07011 24-255): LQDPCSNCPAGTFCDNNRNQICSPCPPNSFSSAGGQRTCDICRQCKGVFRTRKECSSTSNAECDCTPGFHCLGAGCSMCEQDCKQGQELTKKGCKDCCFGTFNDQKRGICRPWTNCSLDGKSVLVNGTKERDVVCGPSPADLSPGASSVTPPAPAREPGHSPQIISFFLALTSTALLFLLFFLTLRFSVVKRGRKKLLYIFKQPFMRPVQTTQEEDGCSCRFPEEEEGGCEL

With 4-1BB (from UniProt Q07011), the Kd is 1000 µM.
